For data set [1], the system named is 4T1 breast tumor. Conditions: mouse, in vivo.
Protocol: A murine cancer model was generated by the injection of 100′000 4T1 cultured breast tumor cells orthotopically into the 2nd left breast of Balb/c immunocompetent mice and allowed to grow for 7 days. Prior to in vivo imaging, the animals were shaved and de-epilated to remove fur for minimal absorbance and scattering of the incident optical light. In-vivo imaging was performed with the Maestro 500 imaging system (Cambridge Research Inc, Woburn, USA). For A680-82C2 detection, a band pass filter from 615 nm-665 nm and a highpass filter over 700 nm were used for excitation and emission light respectively, and fluorescence was detected by a CCD camera (cooled to 11° C.). A series of images were acquired at different wavelengths and then subjected to spectral unmixing (deconvolution of collected optical spectra; this enabled the unmixing of the Alexa680 fluorescence pattern from tissue auto-fluorescence and other spectral contributions).
Whole mice images were acquired at the following timepoints: before antibody injection, immediately after antibody injection, 6 h, 24 h, 48 h, and 6 d after antibody injection.
For data set [2], the target named is T1, rhFAP and FAP SB9 oligopeptidase homologues (rhDPPIV, rhPOP/PREP, rhDPP8, rhDPP9) (Homo sapiens, UniProt Q12884).
T1 construct: purchased Sino Biologicals 10464-H07H
T1 sequence (Q12884 26-760 limits assumed): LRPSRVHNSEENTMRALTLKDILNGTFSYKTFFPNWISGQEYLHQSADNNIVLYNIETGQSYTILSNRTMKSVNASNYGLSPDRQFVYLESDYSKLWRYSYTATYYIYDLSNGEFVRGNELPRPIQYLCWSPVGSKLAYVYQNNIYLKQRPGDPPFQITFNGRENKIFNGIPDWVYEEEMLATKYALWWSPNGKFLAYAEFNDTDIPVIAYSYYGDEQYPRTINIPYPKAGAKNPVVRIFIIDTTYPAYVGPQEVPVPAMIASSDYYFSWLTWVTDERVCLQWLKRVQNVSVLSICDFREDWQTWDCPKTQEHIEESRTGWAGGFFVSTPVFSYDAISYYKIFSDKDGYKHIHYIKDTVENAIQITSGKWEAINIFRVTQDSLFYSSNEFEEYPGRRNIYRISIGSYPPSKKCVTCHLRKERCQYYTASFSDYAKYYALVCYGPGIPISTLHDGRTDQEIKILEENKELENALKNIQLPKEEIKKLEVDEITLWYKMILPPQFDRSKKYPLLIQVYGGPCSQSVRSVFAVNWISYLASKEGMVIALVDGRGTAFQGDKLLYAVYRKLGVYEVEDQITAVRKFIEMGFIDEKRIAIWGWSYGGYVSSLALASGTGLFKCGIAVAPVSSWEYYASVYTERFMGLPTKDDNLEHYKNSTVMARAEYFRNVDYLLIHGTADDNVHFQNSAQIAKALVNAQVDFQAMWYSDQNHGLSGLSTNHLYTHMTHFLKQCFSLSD
Nature of the data set: ELISA binding to SB9 oligopeptidase family enzymes. The conditions noted are these: sandwich ELISA affinity (EC50) assays. As for the experimental part: To determine the binding efficiency and inhibitory ability of NI-206.82C2 against other members of the SB9 oligopeptidase family that have sequence similarity to FAP, indirect ELISA and inihibiton assays were performed on active enzyme targets. Active recombinant human enzymes evaluated in this assay include: Fibroblast Activation Protein (FAP; Sino Biologicals, 10464-H07H), Dipeptidyl Peptidase IV (DPPIV, BPS Bioscience 80040), Dipeptidyl Peptidase 8 (DPP8, BPS Bioscience 80080), Dipeptidyl Peptidase 9 (DPP9, BPS Bioscience 80080), and Prolyl Oligopeptidase/Prolyl Endopeptidase (POP/PREP, BPS Bioscience 80105). Each recombinant peptidase was expressed with a purification tag, and attached to the 96 well ELISA plate using either a mouse anti-Histidine antibody (CloneTech), or a mouse anti-Glutathione S-transferase (GST, Sino Biologicals, 111213-MM02) tag antibody. Each enzyme was validated to bind and remained active on the ELISA plate using enzyme specific fluorogenic substrates. H-Gly-Pro-AMC (ATT Bioquest, 13450) was used to validate the presence and activity of DPP4, DPP9, and DPP8. […] Following a washing step, bound antibody was detected using 3,3′,5,5′-Tetramethylbenzidine (TMB) substrate. The reaction was stopped after 10 minutes by adding 2N H2SO4 and the resulting change in optical density was quantified using an ELISA plate reader at […] absorbance (FIG. 7 E).

Data set [3] deals with MC38 colorectal tumors. Nature of the data set: orthotopic syngeneic MC38 colorectal cancer model, MRI. In kind it is in vivo, mouse. The conditions noted are these: 20 mg/kg i.p. every 72 hours, 5 cycles, versus PBS. On the procedure: […] mice were anesthetized by isofluorane inhalation, and the hepatic portal vein was accessed by median laparotomy (from xiphoid 4 cm caudally). Mice were injected with 1 million murine MC38 colorectal cancer cells. The origin of these cell is described in Science 19 Sep. 1986. MC-38 tumors were allowed to form for 7 days before treatment. Mice were treated with either PBS or NI-206.82C2 (20 mg/kg by intraperitoneal injection) every 72 hours for 5 treatment cycles, before being anesthetized by isofluourane inhalation. Small animal MRI imaging was performed using a Bruker 4.7 Tesla MRI to aquire images of liver metastases. Tumor images were analyzed on Myrian Software (Intrasense) to quantify tumor metastases and cumulative tumor diameter overall tumor burden.

For data set [4], the system named is CT-26 syngeneic liver metastasis. Kind of data set: immunofluorescence on murine CT-26 colorectal cancer tissue sections. More on the design: species or system mouse. Conditions: Cy5 labelled antibody, 10 μg/mL. As for the experimental part:
NI-206.82C2 was prelabelled with Cyanine 5 antibody labeling kit (Innova Biosciences, 342-0010), and sufficient antibody labelling was validated with a photospectrometer. Cryosections of mouse livers containing syngeneic CT-26 liver metastasis were allowed to dry for 30 min at room temperature the fixed for 10 min in 4% formalin in PBS. Slides were then washed 3 times for 5 minutes in PBS and blocked for 1 hr at room temperature with 5% bovine serum albumin in PBS.
The slides were then incubated overnight at 4° C. with staining solution containing DAPI at 0.5 μg/mL, and Alexa 547 phalloidin (Invitrogen) according to the manufacturer's instructions, and either Cy5 labelled NI-206.82C2 or a Cy5 labelled isotype-matched control antibody 3A1 at a concentration of 10 μg/mL, in blocking solution with 0.5% Triton X100. Slides were then washed 3 times in PBS, mounted in Lisbeth's mounting medium, and imaged with an SP8 confocal microscope (Leica Microsystems).

B1: NI-206.82C2: human-derived recombinant anti-FAP antibody; VH SEQ ID NO: 2 or 4 (PIMC), VL SEQ ID NO: 6 (antibody, V domains shown)
VH: QVQLQQSGPGLVKPSQTLSLTCAISGDSVSSNSVTWNWIRQSPSRGLEWLGRTYYRSKWYNDYAVSVKGRITINPDTSKNQFYLQLKSVTPEDAAVYYCARDSSILYGDYWGQGTLVTVSS
VL: QAVLTQPSSLSASPGASASLTCTLPSGINVGTYRIFWFQQKPGSPPQYLLSYKSDSDNHQGSGVPSRFSGSKDASANAGILLISGLQSEDEADYYCMIWHSSAWVFGGGTKLTVL
For the molecule B1, in data set [1], the “antibody concentration after 6 d post antibody injection” value was “declines to almost zero”. Also, the “binding selectivity for rhFAP over SB9 oligopeptidase homologues” value in data set [2] was “selectively binds to recombinant human FAP (rhFAP) but not FAP SB9 oligopeptidase homologues”. In data set [3], the cumulative tumor diameter result is “reduced” and the number of metastases result is “reduced”. Further, the “staining of murine CT-26 liver metastasis sections” value in data set [4] is “found around the perimeter”.

For the origin of these results see patent US20180022822A1, “NOVEL ANTI-FIBROBLAST ACTIVATION PROTEIN (FAP) BINDING AGENTS AND USES THEREOF” (Mabimmune Diagnostics AG, priority 2016, published 2018).
